Consider twelve substances from patent US20110229922A1, “SCREENING ASSAYS FOR THE IDENTIFICATION OF BACE2 INHIBITORS” (priority 2008, published 2011).

No end group written: not given here. MR121 = fluorophore label at the N-terminus

Chain of BACE1 (P56817 46-501, species assumed): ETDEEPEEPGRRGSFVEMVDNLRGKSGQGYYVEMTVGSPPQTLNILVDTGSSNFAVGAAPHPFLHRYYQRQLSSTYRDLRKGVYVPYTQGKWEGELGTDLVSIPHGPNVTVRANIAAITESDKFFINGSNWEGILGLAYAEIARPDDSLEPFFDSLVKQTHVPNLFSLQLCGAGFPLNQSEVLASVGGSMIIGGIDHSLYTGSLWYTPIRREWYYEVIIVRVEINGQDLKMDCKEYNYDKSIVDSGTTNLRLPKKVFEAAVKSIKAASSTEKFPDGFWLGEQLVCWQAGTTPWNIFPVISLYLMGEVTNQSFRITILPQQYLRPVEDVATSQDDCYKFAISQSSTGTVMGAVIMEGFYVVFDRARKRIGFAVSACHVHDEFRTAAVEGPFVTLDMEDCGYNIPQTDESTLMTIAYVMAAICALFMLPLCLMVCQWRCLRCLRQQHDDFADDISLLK

The test system of the first assay is Min6 cells. Kind of assay: Proliferation assay in Min6 cells (EdU, confocal microscopy). In kind it is cell-based. The note with it: 48 hours, p<10-6, FIG. 5a.
Description: 50′000 MING B1 cells per well were seeded in a 96-well plate using standard trypsinization method. The following day, serum-supplemented complete medium (described earlier) was removed and replaced by serum-free and low glucose medium (Invitrogen) supplemented with the compound as follows: 10 nM exendin-4 (Sigma-Aldrich) as a positive control was added to the cells every 12 h, to avoid degradation. […] As an absolute positive control cells were also grown in FCS supplemented standard media. Cells were incubated for 48 hours.
After this incubation, medium was discarded and replaced by the serum-supplemented medium containing 10 nM EdU (Invitrogen) and incubated for 1 h at 37° C. […]
Spinning-disc confocal fluorescence microscopy of the 96-well plate has been performed on the high-throughput automated imaging system Opera™ QEHS (PerkinElmer Cellular Technologies, Hamburg, Germany). […] In each well, typically 12 pairs of scanning images were recorded through a UAPO 20×NA 0.7 water immersion objective lens (Olympus) and optimized filter sets by 2 independent high quantum-efficiency 12 bit CCD cameras (1.3 mega pixels monochrome). […]
Confocal micrographs were analyzed using the proprietary software environment of PerkinElmer's Opera (Acapella 1.8, PerkinElmer Cellular Technologies, Hamburg, Germany). […]
In the case of exendin-4, the “proliferation rate compared to basal proliferation rate of starved cells” value was “highly significant proliferation increase”.

The target in a further assay is T1, BACE2 (Homo sapiens, UniProt Q9Y5Z0).
T1 construct: made in house; host or cells: E. coli BL21(DE3)
T1 sequence (Q9Y5Z0 20-465): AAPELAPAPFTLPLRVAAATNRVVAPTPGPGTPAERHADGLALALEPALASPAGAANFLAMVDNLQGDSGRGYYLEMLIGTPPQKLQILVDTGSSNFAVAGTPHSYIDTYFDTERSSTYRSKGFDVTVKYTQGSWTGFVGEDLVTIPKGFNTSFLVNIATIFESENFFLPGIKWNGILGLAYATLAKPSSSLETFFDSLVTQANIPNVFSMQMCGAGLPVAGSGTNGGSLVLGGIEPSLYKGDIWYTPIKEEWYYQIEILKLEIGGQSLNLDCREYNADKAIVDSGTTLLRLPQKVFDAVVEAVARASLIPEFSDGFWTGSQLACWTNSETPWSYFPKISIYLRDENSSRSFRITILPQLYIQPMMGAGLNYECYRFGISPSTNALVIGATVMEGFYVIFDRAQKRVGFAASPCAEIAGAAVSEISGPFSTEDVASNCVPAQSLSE
Kind of assay: FRET peptide cleavage assay, BACE2 activity on peptide substrates. In kind it is biochemical. The note with it: pH 4.5, substrate 5 μM, FIG. 7 and FIG. 9. How it is done:
The FRET assay was performed essentially as described in Grüninger-Leitch et al. [Substrate and inhibitor profile of BACE (beta-secretase) and comparison with other mammalian aspartic proteases. Journal of Biological Chemistry (2002) 277(7) 4687-93]. In summary, a peptide is designed that is cleaved by the protease. The peptide is labelled with dabsyl at the N terminus and Lucifer Yellow at the C-terminus, such that for an intact peptide the Lucifer Yellow fluorescence is quenched by the dabsyl. When the peptide is cut by BACE2, the quenching is removed and a fluorescent signal is generated.
The assay was performed as described in Grueninger et al. 2002 at pH 4.5 using a substrate concentration of 5 μM. All FRET-peptides had the format described.
(§1) BACE2 enzyme ectodomain was prepared as described in Ostermann et al [“Crystal Structure of Human BACE2 in Complex with a Hydroxyethylamine Transition-state Inhibitor.” Journal of Molecular Biology 355 (2006) 249-261].
For the substance “dabsyl-NSLEFLGIQP-lucifer yellow: FRET peptide based on the sequence of ACE2 at the site equivalent to the BACE2 cleavage site in TMEM27 (dabsyl-NSLEFLGIQP-{Lucifer Yellow})”, the “BACE2 activity against FRET peptide substrate” value is listed as “efficiency greater than that of the TMEM27 substrate”.

As to “dabsyl—QTLEFLKIPS—LucY: FRET peptide based on the TMEM27 sequence, dabsyl at N terminus and Lucifer Yellow at C-terminus (dabsyl-QTLEFLKIPS-{Lucifer Yellow})”, the “BACE2 activity against FRET peptide substrate” value was “high activity”.

Another assay addresses BACE1 (Homo sapiens, UniProt P56817). Kind of assay: FRET peptide cleavage assay, BACE1 activity on peptide substrates. The class given is biochemical. The note with it: pH 4.5, substrate 5 μM, FIG. 7.
With “dabsyl—QTLEFLKIPS—LucY: FRET peptide based on the TMEM27 sequence, dabsyl at N terminus and Lucifer Yellow at C-terminus (dabsyl-QTLEFLKIPS-{Lucifer Yellow})”, the “BACE1 activity against FRET peptide substrate” value is reported as “insignificant activity”.

The target in the next assay is T1, BACE2. Kind of assay: MR121-peptide cleavage assay. The class given is biochemical. Also noted: scale not given here. The note with it: substrate peptides labelled with MR121 at N-terminus and tryptophan at C-terminus. How it is done: In a related assay, a peptide was devised with the same sequence, which was labeled at the N-terminus with MR121 and at the C-terminus with Tryptophan.
Substrate peptides derived from TMEM27 with activity in the MR121-peptide cleavage assay.
as §1
Take “C LEFLKI W: Substrate peptide derived from TMEM27 for MR121-peptide cleavage assay (MR121-CLEFLKIW)”: the Relative activity stood at 24.

“C QELEFLKI W: Substrate peptide derived from TMEM27 for MR121-peptide cleavage assay (MR121-CQELEFLKIW)” came in with a Relative activity of 100.

Take “C QTLEF W: Substrate peptide derived from TMEM27 for MR121-peptide cleavage assay (MR121-CQTLEFW)”: the Relative activity came out at 21.

As for “C QTLEFL W: Substrate peptide derived from TMEM27 for MR121-peptide cleavage assay (MR121-CQTLEFLW)”, the Relative activity is on record as 32.

“C QTLEFLK W: Substrate peptide derived from TMEM27 for MR121-peptide cleavage assay (MR121-CQTLEFLKW)” gave a Relative activity of 62.

In turn, “C QTLEFLKI W: Substrate peptide derived from TMEM27 for MR121-peptide cleavage assay (MR121-CQTLEFLKIW)” had a Relative activity of 96.

Take “C QTLEFLKIP W: Substrate peptide derived from TMEM27 for MR121-peptide cleavage assay (MR121-CQTLEFLKIPW)”: the Relative activity was 75.

Turning to “C QTLEFLKIPS W: Substrate peptide derived from TMEM27 for MR121-peptide cleavage assay (MR121-CQTLEFLKIPSW)”, the Relative activity worked out at 91.

In turn, “C TLEFLKI W: Substrate peptide derived from TMEM27 for MR121-peptide cleavage assay (MR121-CTLEFLKIW)” yielded a Relative activity of 28.
